The test system of data set [1] is Saccharomyces cerevisiae. As to the kind of experiment: protein stability index of tFT-peptide fusion (C-terminal peptide) (PSI (0-1 scale)); higher = more stable (slower turnover). How it is done: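 MPS profiling in S. cerevisiae of the tFT-X12 degron library: putative degron peptides plus stable controls, 12 aa, fused to the C-terminus of a sfGFP-mCherry timer. Cells are FACS-sorted into 8 mCherry/sfGFP bins and deep-sequenced. PSI runs from 0 (unstable) to 1 (stable). Backgrounds are wild type, das1Δ and doa10Δ at 30 °C, and wild type, das1Δ, cdc34-1 and cdc53-1 at 37 °C; 2-3 technical replicates each.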

For data set [2], the system named is Saccharomyces cerevisiae. The data set is described as above. As to conditions: genetic background: wild type; temperature: 30 C.
[3] abbreviates: genetic background: cdc34-1, temperature: 37 C.
Where [4] appears, read: genetic background: cdc53-1, temperature: 37 C.
Setting [5] is: genetic background: das1 deletion, temperature: 30 C.
[6] abbreviates: genetic background: das1 deletion, temperature: 37 C.
The mark [7] stands for this setting: genetic background: doa10 deletion, temperature: 30 C.
Where [8] appears, read: genetic background: wild type, temperature: 30 C.
Setting [9] is: genetic background: wild type, temperature: 37 C.

± gives the standard deviation of the averaged measurements.
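Note: PSI is a weighted mean of sequencing reads over stability bins, variants kept only with over 10 reads, mCherry proximal and sfGFP distal, peptide attached via GGGS linker.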

As to SCRCIIFVCCFW, the protein stability index in data set [1] (setting [3]) stood at 0.256 ± 0.0043; in data set [1] (setting [4]), 0.404 ± 0.032; in data set [1] (setting [5]), 0.262 ± 0.025; in data set [1] (setting [6]) it was 0.465 ± 0.057; in data set [1] (setting [7]), 0.235 ± 0.0024; in data set [1] (setting [8]), 0.237 ± 0.034. Moreover, the values for the protein stability index in data set [1] (setting [9]) and in data set [2] were 0.388 ± 0.023 and 0.384 ± 0.011, respectively.
On to SFFVCAGFWVLC, for which the protein stability index in data set [1] (setting [3]) worked out at 0.419 ± 0.0091; in data set [1] (setting [4]) it was 0.511 ± 0.081; in data set [1] (setting [5]) it was 0.347 ± 0.025; in data set [1] (setting [6]), 0.539 ± 0.049; in data set [1] (setting [7]), 0.248 ± 0.011; in data set [1] (setting [8]), 0.289 ± 0.016. The protein stability index in data set [1] (setting [9]) stood at 0.456 ± 0.0091; in data set [2], 0.363 ± 0.024.
With SFLCGCVVCWLW, the protein stability index in data set [1] (setting [3]) came out at 0.464 ± 0.063; in data set [1] (setting [4]), 0.547 ± 0.039; in data set [1] (setting [5]) it was 0.397 ± 0.026; in data set [1] (setting [6]), 0.552 ± 0.011; in data set [1] (setting [7]) it was 0.4 ± 0.027; in data set [1] (setting [8]), 0.396 ± 0.014. Moreover, the protein stability index in data set [1] (setting [9]) stood at 0.505 ± 0.0073; in data set [2], 0.449 ± 0.04.
For SFLVRFVYFFAL, the protein stability index in data set [1] (setting [3]) was 0.54 ± 0.043; in data set [1] (setting [4]) it was 0.619 ± 0.025; in data set [1] (setting [5]), 0.549 ± 0.021; in data set [1] (setting [6]) it was 0.6696 ± 0.0039; in data set [1] (setting [7]), 0.229 ± 0.02; in data set [1] (setting [8]), 0.232 ± 0.027. The protein stability index stood at 0.309 ± 0.017 in data set [1] (setting [9]) and 0.314 ± 0.019 in data set [2].
For the sequence SFQLVFLCVLIW, the protein stability index in data set [1] (setting [3]) came to 0.136 ± 0.0088; in data set [1] (setting [4]) it was 0.129 ± 0.008; in data set [1] (setting [5]) it was 0.155 ± 0.024; in data set [1] (setting [6]) it was 0.237 ± 0.0049; in data set [1] (setting [7]) it was 0.203 ± 0.011; in data set [1] (setting [8]) it was 0.154 ± 0.0091. In addition, the protein stability index in data set [1] (setting [9]) stood at 0.184 ± 0.011; in data set [2], 0.218 ± 0.029.
As to SFTPPRVCLCFS, the protein stability index in data set [1] (setting [3]) worked out at 0.465 ± 0.04; in data set [1] (setting [4]) it was 0.503 ± 0.008; in data set [1] (setting [5]), 0.319 ± 0.029; in data set [1] (setting [6]) it was 0.5205 ± 0.0047; in data set [1] (setting [7]), 0.2778 ± 0.002; in data set [1] (setting [8]), 0.3 ± 0.024. Further, the protein stability index in data set [1] (setting [9]) amounted to 0.496 ± 0.02; in data set [2] it was 0.3999 ± 0.0022.
As to SFVCFFLNLFVY, the protein stability index in data set [1] (setting [3]) was 0.0549 ± 0.013; in data set [1] (setting [4]) it was 0.138 ± 0.013; in data set [1] (setting [5]) it was 0.172 ± 0.032; in data set [1] (setting [6]), 0.272 ± 0.017; in data set [1] (setting [7]), 0.123 ± 0.021; in data set [1] (setting [8]) it was 0.123 ± 0.019. In addition, the protein stability index is 0.18 ± 0.018 in data set [1] (setting [9]) and 0.164 ± 0.0077 in data set [2].
Take SGCWGRRLWFFN: the protein stability index in data set [1] (setting [3]) came to 0.668 ± 0.04; in data set [1] (setting [4]), 0.791 ± 0.018; in data set [1] (setting [5]), 0.66 ± 0.037; in data set [1] (setting [6]), 0.7567 ± 0.0052; in data set [1] (setting [7]), 0.189 ± 0.018; in data set [1] (setting [8]), 0.235 ± 0.016. Moreover, the figures for the protein stability index in data set [1] (setting [9]) and in data set [2] were 0.453 ± 0.011 and 0.325 ± 0.065, respectively.
On to SIFWWWLVFILG, for which the protein stability index in data set [1] (setting [3]) was 0.469 ± 0.0093; in data set [1] (setting [4]) it was 0.4759 ± 0.0034; in data set [1] (setting [5]), 0.362 ± 0.02; in data set [1] (setting [6]), 0.502 ± 0.008; in data set [1] (setting [7]) it was 0.366 ± 0.018; in data set [1] (setting [8]) it was 0.368 ± 0.026. The protein stability index turned out to be 0.462 ± 0.011 in data set [1] (setting [9]) and 0.418 ± 0.085 in data set [2].
In the case of SIIRHLFHPSST, the protein stability index in data set [1] (setting [3]) turned out to be 0.67 ± 0.026; in data set [1] (setting [4]), 0.7184 ± 0.0046; in data set [1] (setting [5]), 0.643 ± 0.0091; in data set [1] (setting [6]) it was 0.72688 ± 9e-05; in data set [1] (setting [7]), 0.65 ± 0.018; in data set [1] (setting [8]), 0.659 ± 0.03. The protein stability index in data set [1] (setting [9]) came to 0.695 ± 0.018; in data set [2], 0.709 ± 0.013.
For SIPFWPVLFFLL, the protein stability index in data set [1] (setting [3]) came out at 0.353 ± 0.021; in data set [1] (setting [4]), 0.475 ± 0.014; in data set [1] (setting [5]), 0.494 ± 0.018; in data set [1] (setting [6]) it was 0.6088 ± 0.0044; in data set [1] (setting [7]) it was 0.0877 ± 0.011; in data set [1] (setting [8]), 0.091 ± 0.011. For the same sequence, the protein stability index in data set [1] (setting [9]) worked out at 0.0952 ± 0.0057; in data set [2] it was 0.14 ± 0.033.
For SIRIIVVVRGAS, the protein stability index is 0.528 ± 0.048 in data set [1] (setting [3]); 0.628 ± 0.056 in data set [1] (setting [4]); 0.433 ± 0.023 in data set [1] (setting [5]); 0.61 ± 0.071 in data set [1] (setting [6]); 0.393 ± 0.024 in data set [1] (setting [7]); 0.41 ± 0.017 in data set [1] (setting [8]). Also, the protein stability index stood at 0.543 ± 0.02 in data set [1] (setting [9]) and 0.382 ± 0.12 in data set [2].
As to SLCSRLVVVAWF, the protein stability index in data set [1] (setting [3]) worked out at 0.531 ± 0.017; in data set [1] (setting [4]), 0.599 ± 0.026; in data set [1] (setting [5]) it was 0.432 ± 0.026; in data set [1] (setting [6]) it was 0.608 ± 0.014; in data set [1] (setting [7]) it was 0.374 ± 0.035; in data set [1] (setting [8]), 0.386 ± 0.0062. Moreover, the values for the protein stability index in data set [1] (setting [9]) and in data set [2] were 0.553 ± 0.026 and 0.494 ± 0.024, respectively.
For the sequence SLRKRILCRFEY, the protein stability index in data set [1] (setting [3]) came out at 0.6572 ± 0.0064; in data set [1] (setting [4]), 0.708 ± 0.011; in data set [1] (setting [5]) it was 0.655 ± 0.012; in data set [1] (setting [6]), 0.7348 ± 0.0056; in data set [1] (setting [7]), 0.368 ± 0.041; in data set [1] (setting [8]), 0.4388 ± 0.0014. Further, the protein stability index in data set [1] (setting [9]) was 0.599 ± 0.023; in data set [2], 0.511 ± 0.023.
For the sequence SLSIFCLMLMLF, the protein stability index came out at 0.564 ± 0.04 in data set [1] (setting [3]); 0.601 ± 0.029 in data set [1] (setting [4]); 0.467 ± 0.016 in data set [1] (setting [5]); 0.565 ± 0.025 in data set [1] (setting [6]); 0.425 ± 0.015 in data set [1] (setting [7]); 0.406 ± 0.021 in data set [1] (setting [8]). Further, the protein stability index in data set [1] (setting [9]) was determined as 0.512 ± 0.012; in data set [2], 0.4537 ± 0.0037.

The values are drawn from the supplement of paper PMC10724198.
